Data reported in publication PMC8849478, “Scalable manufacturing platform for the production of methemoglobin as a non-oxygen carrying control material in studies of cell-free hemoglobin solutions” (PLoS ONE, 2022).

B1: bovine methemoglobin (complex)
chain 1: not shown
chain 2: not shown
notes: hemoglobin alpha chain, bovine, from whole bovine blood; hemoglobin beta chain, bovine, from whole bovine blood; same chains as m1; the heme iron is oxidised to the ferric state (HbFe3+); purity 99.7 ± 0.2%; also called metbHb; bovine metHb; copies: 2 + 2
B2: bovine hemoglobin (complex)
chain 1: not shown
chain 2: not shown
notes: hemoglobin alpha chain, bovine, from whole bovine blood; hemoglobin beta chain, bovine, from whole bovine blood; alpha2beta2 tetramer with ferrous heme (HbFe2+); in equilibrium with alpha-beta dimers; also called bHb; unmodified bHb; source: purified from bovine red blood cells (lysis, tangential flow filtration); copies: 2 + 2

Target: the molecule itself
Assay: SEC; tetramer to dimers; SEC-HPLC of samples at 1.25, 2.5, 5, 10 and 20 μM (heme basis) after incubation in 0.1 M PBS pH 7.4 at 4°C for one week; fraction of tetramers by deconvolution, Kd from the intercept of the linearised plot (Eq 3)

| Protein | Kd |
| --- | --- |
| B1 | 550 nM |
| B2 | 500 nM |
